Results on 3 molecules are retold here after article PMC6138665 (2018).

Experiment [1] addresses -L1 protein (recombinant) (UniProt Q9H0R8 1-117). Briefly: ITC. On the technique in general: ITC needs no label: the signal is the heat of the interaction.
The target in experiment [2] is T1, GABARAP protein (recombinant) (UniProt O95166 1-117). Description: NMR; GABARAP residue I32.
Experiment [3] concerns the target T2, LC3B protein (recombinant) (UniProt Q9GZQ8 1-120). Description: NMR.
In experiment [4] the target is LC3A protein (recombinant) (UniProt Q9H492 1-121). Briefly: ITC.
Experiment [5] deals with T2, LC3B protein (recombinant). Briefly: ITC.
Experiment [6] addresses T1, GABARAP protein (recombinant). Description: ITC.

Non-standard residues stand in square brackets, D forms with d. No end group written: not given here. pS = N[C@@H](COP(=O)(O)O)C(=O)O

T1 sequence (O95166 whole entry): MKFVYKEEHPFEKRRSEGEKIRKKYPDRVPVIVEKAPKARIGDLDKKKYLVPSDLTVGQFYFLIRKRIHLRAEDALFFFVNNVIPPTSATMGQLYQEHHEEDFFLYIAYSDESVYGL
Sequence of -L1 protein (recombinant) (Q9H0R8 whole entry): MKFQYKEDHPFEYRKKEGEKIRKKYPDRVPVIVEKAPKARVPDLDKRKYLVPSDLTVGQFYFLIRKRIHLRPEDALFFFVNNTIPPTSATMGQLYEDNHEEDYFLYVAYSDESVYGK

For EALNSGVEYYWDQLNET [AMBRA1-LIR peptide, unphosphorylated (P0)], the Kd (usually a measure of binding affinity in units of concentration) in experiment [1] was over 50 µM; in experiment [2] it was 61 µM; in experiment [3] it was 193 µM.
For the molecule EALN[pS]GVEYYWDQLNET [AMBRA1-LIR peptide, S1014 phosphorylated (P1)], the Kd in experiment [1] was 25 µM; in experiment [4] it was about 50 µM; in experiment [2] it was 7 µM; in experiment [3], 46 µM.
As for EALNDGVEYYWDQLNET [AMBRA1-LIR peptide, D-phosphomimicked (PM)], the dissociation constant (Kd) in experiment [5] is about 50 µM; in experiment [6], 31 µM.
